Patent US20230357348A1 (AstraZeneca / MedImmune, published 2023)
Starred links: 1 amine or outer side, 2 acyl side, 3 side chain; linkers in the order of their positions; H or OH if unused. Non-standard residues stand in square brackets, D forms with d. Groups on a side chain read outwards from the residue. No end group written: not given here. *: point of attachment. C20 diacid = O=C(O)CCCCCCCCCCCCCCCCCCC(=O)*; C18 diacid = O=C(O)CCCCCCCCCCCCCCCCC(=O)*; γGlu = O=C(O)[C@H](CCC(=O)[*:2])N[*:1]; αMeF = C[C@](N)(Cc1ccccc1)C(=O)O; AEEA = NCCOCCOCC(=O)O; Aib = CC(C)(N)C(=O)O

Key:
[1] = molecular target: human GLP-1 receptor (hGLP-1R) (human, UniProt P43220 24-463); test: cell-based or functional assay
[2] = molecular target: human glucagon receptor (hGCGR) (human, UniProt P47871 26-477); test: cell-based or functional assay
human glucagon receptor (hGCGR), sequence (P47871 26-477): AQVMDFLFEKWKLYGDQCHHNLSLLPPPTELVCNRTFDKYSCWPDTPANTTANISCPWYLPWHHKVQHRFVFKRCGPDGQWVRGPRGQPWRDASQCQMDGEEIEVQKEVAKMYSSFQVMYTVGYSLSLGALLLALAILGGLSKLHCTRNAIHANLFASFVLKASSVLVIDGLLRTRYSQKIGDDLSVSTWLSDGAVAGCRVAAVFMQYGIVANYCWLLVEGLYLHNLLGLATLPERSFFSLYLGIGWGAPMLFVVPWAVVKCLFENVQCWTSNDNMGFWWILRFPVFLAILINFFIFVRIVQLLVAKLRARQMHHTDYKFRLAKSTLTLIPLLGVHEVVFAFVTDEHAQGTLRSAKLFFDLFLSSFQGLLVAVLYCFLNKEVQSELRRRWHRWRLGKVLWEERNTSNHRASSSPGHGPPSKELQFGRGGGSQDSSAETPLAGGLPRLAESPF

Binder | hGLP-1R EC50 (pM) [1] [pM] | hGluc-R EC50 (pM) [2] [pM]
HSQGS[αMeF]TSDVSK[αMeF]LDSK([AEEA-AEEA-γGlu-C18 diacid])AAQDFVQWIANT-NH2 (N-terminus assumed; SMILES CC[C@H](C)[C@H](NC(=O)[C@H](Cc1c[nH]c2ccccc12)NC(=O)[C@H](CCC(N)=O)NC(=O)[C@@H](NC(=O)[C@H](Cc1ccccc1)NC(=O)[C@H](CC(=O)O)NC(=O)[C@H](CCC(N)=O)NC(=O)[C@H](C)NC(=O)[C@H](C)NC(=O)[C@H](CCCCNC(=O)COCCOCCNC(=O)COCCOCCNC(=O)CC[C@H](NC(=O)CCCCCCCCCCCCCCCCC(=O)O)C(=O)O)NC(=O)[C@H](CO)NC(=O)[C@H](CC(=O)O)NC(=O)[C@H](CC(C)C)NC(=O)[C@](C)(Cc1ccccc1)NC(=O)[C@H](CCCCN)NC(=O)[C@H](CO)NC(=O)[C@@H](NC(=O)[C@H](CC(=O)O)NC(=O)[C@H](CO)NC(=O)[C@@H](NC(=O)[C@](C)(Cc1ccccc1)NC(=O)[C@H](CO)NC(=O)CNC(=O)[C@H](CCC(N)=O)NC(=O)[C@H](CO)NC(=O)[C@@H](N)Cc1c[nH]cn1)[C@@H](C)O)C(C)C)C(C)C)C(=O)N[C@@H](C)C(=O)N[C@@H](CC(N)=O)C(=O)N[C@H](C(N)=O)[C@@H](C)O) [Peptide 4] | 240 | 1170
H[Aib]QGTFTSDVSK[αMeF]LDSK([AEEA-AEEA-γGlu-C18 diacid])RARDFVRWLL[Aib]TE-OH (N-terminus assumed; SMILES CC(C)C[C@H](NC(=O)[C@H](Cc1c[nH]c2ccccc12)NC(=O)[C@H](CCCNC(=N)N)NC(=O)[C@@H](NC(=O)[C@H](Cc1ccccc1)NC(=O)[C@H](CC(=O)O)NC(=O)[C@H](CCCNC(=N)N)NC(=O)[C@H](C)NC(=O)[C@H](CCCNC(=N)N)NC(=O)[C@H](CCCCNC(=O)COCCOCCNC(=O)COCCOCCNC(=O)CC[C@H](NC(=O)CCCCCCCCCCCCCCCCC(=O)O)C(=O)O)NC(=O)[C@H](CO)NC(=O)[C@H](CC(=O)O)NC(=O)[C@H](CC(C)C)NC(=O)[C@](C)(Cc1ccccc1)NC(=O)[C@H](CCCCN)NC(=O)[C@H](CO)NC(=O)[C@@H](NC(=O)[C@H](CC(=O)O)NC(=O)[C@H](CO)NC(=O)[C@@H](NC(=O)[C@H](Cc1ccccc1)NC(=O)[C@@H](NC(=O)CNC(=O)[C@H](CCC(N)=O)NC(=O)C(C)(C)NC(=O)[C@@H](N)Cc1c[nH]cn1)[C@@H](C)O)[C@@H](C)O)C(C)C)C(C)C)C(=O)N[C@@H](CC(C)C)C(=O)NC(C)(C)C(=O)N[C@H](C(=O)N[C@@H](CCC(=O)O)C(=O)O)[C@@H](C)O) [Peptide 166] | 48 | 270
H[Aib]QGTFTSDVSK[αMeF]LDSK([AEEA-AEEA-γGlu-C20 diacid])RAQDFVRWLL[Aib]TE-OH (N-terminus assumed; SMILES CC(C)C[C@H](NC(=O)[C@H](Cc1c[nH]c2ccccc12)NC(=O)[C@H](CCCNC(=N)N)NC(=O)[C@@H](NC(=O)[C@H](Cc1ccccc1)NC(=O)[C@H](CC(=O)O)NC(=O)[C@H](CCC(N)=O)NC(=O)[C@H](C)NC(=O)[C@H](CCCNC(=N)N)NC(=O)[C@H](CCCCNC(=O)COCCOCCNC(=O)COCCOCCNC(=O)CC[C@H](NC(=O)CCCCCCCCCCCCCCCCCCC(=O)O)C(=O)O)NC(=O)[C@H](CO)NC(=O)[C@H](CC(=O)O)NC(=O)[C@H](CC(C)C)NC(=O)[C@](C)(Cc1ccccc1)NC(=O)[C@H](CCCCN)NC(=O)[C@H](CO)NC(=O)[C@@H](NC(=O)[C@H](CC(=O)O)NC(=O)[C@H](CO)NC(=O)[C@@H](NC(=O)[C@H](Cc1ccccc1)NC(=O)[C@@H](NC(=O)CNC(=O)[C@H](CCC(N)=O)NC(=O)C(C)(C)NC(=O)[C@@H](N)Cc1c[nH]cn1)[C@@H](C)O)[C@@H](C)O)C(C)C)C(C)C)C(=O)N[C@@H](CC(C)C)C(=O)NC(C)(C)C(=O)N[C@H](C(=O)N[C@@H](CCC(=O)O)C(=O)O)[C@@H](C)O) [Peptide 151] | 111 | 178

Results, then the binder that gave them:

hGLP-1R EC50 (pM) [1] [pM] | hGluc-R EC50 (pM) [2] [pM] | Binder
41.2 | 99 | H[Aib]QGTFTSDVSK[αMeF]LDSK([AEEA-AEEA-γGlu-C20 diacid])RAQDFVRWLL[Aib]E-OH (N-terminus assumed; SMILES CC(C)C[C@H](NC(=O)[C@H](Cc1c[nH]c2ccccc12)NC(=O)[C@H](CCCNC(=N)N)NC(=O)[C@@H](NC(=O)[C@H](Cc1ccccc1)NC(=O)[C@H](CC(=O)O)NC(=O)[C@H](CCC(N)=O)NC(=O)[C@H](C)NC(=O)[C@H](CCCNC(=N)N)NC(=O)[C@H](CCCCNC(=O)COCCOCCNC(=O)COCCOCCNC(=O)CC[C@H](NC(=O)CCCCCCCCCCCCCCCCCCC(=O)O)C(=O)O)NC(=O)[C@H](CO)NC(=O)[C@H](CC(=O)O)NC(=O)[C@H](CC(C)C)NC(=O)[C@](C)(Cc1ccccc1)NC(=O)[C@H](CCCCN)NC(=O)[C@H](CO)NC(=O)[C@@H](NC(=O)[C@H](CC(=O)O)NC(=O)[C@H](CO)NC(=O)[C@@H](NC(=O)[C@H](Cc1ccccc1)NC(=O)[C@@H](NC(=O)CNC(=O)[C@H](CCC(N)=O)NC(=O)C(C)(C)NC(=O)[C@@H](N)Cc1c[nH]cn1)[C@@H](C)O)[C@@H](C)O)C(C)C)C(C)C)C(=O)N[C@@H](CC(C)C)C(=O)NC(C)(C)C(=O)N[C@@H](CCC(=O)O)C(=O)O) [Peptide 153]
11.9 | 20.4 | H[Aib]QGTFTSDVSK[αMeF]LDSK([AEEA-AEEA-γGlu-C18 diacid])RAQDFVRWLL[Aib]E-OH (N-terminus assumed; SMILES CC(C)C[C@H](NC(=O)[C@H](Cc1c[nH]c2ccccc12)NC(=O)[C@H](CCCNC(=N)N)NC(=O)[C@@H](NC(=O)[C@H](Cc1ccccc1)NC(=O)[C@H](CC(=O)O)NC(=O)[C@H](CCC(N)=O)NC(=O)[C@H](C)NC(=O)[C@H](CCCNC(=N)N)NC(=O)[C@H](CCCCNC(=O)COCCOCCNC(=O)COCCOCCNC(=O)CC[C@H](NC(=O)CCCCCCCCCCCCCCCCC(=O)O)C(=O)O)NC(=O)[C@H](CO)NC(=O)[C@H](CC(=O)O)NC(=O)[C@H](CC(C)C)NC(=O)[C@](C)(Cc1ccccc1)NC(=O)[C@H](CCCCN)NC(=O)[C@H](CO)NC(=O)[C@@H](NC(=O)[C@H](CC(=O)O)NC(=O)[C@H](CO)NC(=O)[C@@H](NC(=O)[C@H](Cc1ccccc1)NC(=O)[C@@H](NC(=O)CNC(=O)[C@H](CCC(N)=O)NC(=O)C(C)(C)NC(=O)[C@@H](N)Cc1c[nH]cn1)[C@@H](C)O)[C@@H](C)O)C(C)C)C(C)C)C(=O)N[C@@H](CC(C)C)C(=O)NC(C)(C)C(=O)N[C@@H](CCC(=O)O)C(=O)O) [Peptide 152]
283 | 7140 | H[Aib]QGS[αMeF]TSDVSK[αMeF]LDSK([AEEA-AEEA-γGlu-γGlu-C18 diacid])AAQD[αMeF]VQ[Aib]IAN-NH2 (N-terminus assumed; SMILES CC[C@H](C)[C@H](NC(=O)C(C)(C)NC(=O)[C@H](CCC(N)=O)NC(=O)[C@@H](NC(=O)[C@](C)(Cc1ccccc1)NC(=O)[C@H](CC(=O)O)NC(=O)[C@H](CCC(N)=O)NC(=O)[C@H](C)NC(=O)[C@H](C)NC(=O)[C@H](CCCCNC(=O)COCCOCCNC(=O)COCCOCCNC(=O)CC[C@H](NC(=O)CC[C@H](NC(=O)CCCCCCCCCCCCCCCCC(=O)O)C(=O)O)C(=O)O)NC(=O)[C@H](CO)NC(=O)[C@H](CC(=O)O)NC(=O)[C@H](CC(C)C)NC(=O)[C@](C)(Cc1ccccc1)NC(=O)[C@H](CCCCN)NC(=O)[C@H](CO)NC(=O)[C@@H](NC(=O)[C@H](CC(=O)O)NC(=O)[C@H](CO)NC(=O)[C@@H](NC(=O)[C@](C)(Cc1ccccc1)NC(=O)[C@H](CO)NC(=O)CNC(=O)[C@H](CCC(N)=O)NC(=O)C(C)(C)NC(=O)[C@@H](N)Cc1c[nH]cn1)[C@@H](C)O)C(C)C)C(C)C)C(=O)N[C@@H](C)C(=O)N[C@@H](CC(N)=O)C(N)=O) [Peptide 5]
22.7 |  | H[Aib]QGTFTSDVSK[αMeF]LDTK([AEEA-AEEA-γGlu-C18 diacid])RAQDFVRWLLE[Aib]G-OH (N-terminus assumed; SMILES CC(C)C[C@H](NC(=O)[C@H](Cc1c[nH]c2ccccc12)NC(=O)[C@H](CCCNC(=N)N)NC(=O)[C@@H](NC(=O)[C@H](Cc1ccccc1)NC(=O)[C@H](CC(=O)O)NC(=O)[C@H](CCC(N)=O)NC(=O)[C@H](C)NC(=O)[C@H](CCCNC(=N)N)NC(=O)[C@H](CCCCNC(=O)COCCOCCNC(=O)COCCOCCNC(=O)CC[C@H](NC(=O)CCCCCCCCCCCCCCCCC(=O)O)C(=O)O)NC(=O)[C@@H](NC(=O)[C@H](CC(=O)O)NC(=O)[C@H](CC(C)C)NC(=O)[C@](C)(Cc1ccccc1)NC(=O)[C@H](CCCCN)NC(=O)[C@H](CO)NC(=O)[C@@H](NC(=O)[C@H](CC(=O)O)NC(=O)[C@H](CO)NC(=O)[C@@H](NC(=O)[C@H](Cc1ccccc1)NC(=O)[C@@H](NC(=O)CNC(=O)[C@H](CCC(N)=O)NC(=O)C(C)(C)NC(=O)[C@@H](N)Cc1c[nH]cn1)[C@@H](C)O)[C@@H](C)O)C(C)C)[C@@H](C)O)C(C)C)C(=O)N[C@@H](CC(C)C)C(=O)N[C@@H](CCC(=O)O)C(=O)NC(C)(C)C(=O)NCC(=O)O) [Peptide 140]
166 | 355 | H[Aib]QGTFTSDVSK[αMeF]LDSK([AEEA-AEEA-γGlu-C18 diacid])RAQDFVQWLL[Aib]TE-OH (N-terminus assumed; SMILES CC(C)C[C@H](NC(=O)[C@H](Cc1c[nH]c2ccccc12)NC(=O)[C@H](CCC(N)=O)NC(=O)[C@@H](NC(=O)[C@H](Cc1ccccc1)NC(=O)[C@H](CC(=O)O)NC(=O)[C@H](CCC(N)=O)NC(=O)[C@H](C)NC(=O)[C@H](CCCNC(=N)N)NC(=O)[C@H](CCCCNC(=O)COCCOCCNC(=O)COCCOCCNC(=O)CC[C@H](NC(=O)CCCCCCCCCCCCCCCCC(=O)O)C(=O)O)NC(=O)[C@H](CO)NC(=O)[C@H](CC(=O)O)NC(=O)[C@H](CC(C)C)NC(=O)[C@](C)(Cc1ccccc1)NC(=O)[C@H](CCCCN)NC(=O)[C@H](CO)NC(=O)[C@@H](NC(=O)[C@H](CC(=O)O)NC(=O)[C@H](CO)NC(=O)[C@@H](NC(=O)[C@H](Cc1ccccc1)NC(=O)[C@@H](NC(=O)CNC(=O)[C@H](CCC(N)=O)NC(=O)C(C)(C)NC(=O)[C@@H](N)Cc1c[nH]cn1)[C@@H](C)O)[C@@H](C)O)C(C)C)C(C)C)C(=O)N[C@@H](CC(C)C)C(=O)NC(C)(C)C(=O)N[C@H](C(=O)N[C@@H](CCC(=O)O)C(=O)O)[C@@H](C)O) [Peptide 150]
